For this experiment, the target named is His6-tagged rat SLFN13 N′-domain, residues 14–353 (crystallised rSLFN13_(14–353)) (rat) (UniProt Q5U311). Description: right-angle light scattering (RALS) of eluted protein; purified protein in solution; elution with RALS detection; conditions not shown (Supplementary Fig. 2a).

By stoichiometry N is commonly meant a count of units in the complex or per binding partner. In turn, “His6-tagged rat SLFN13 N′-domain, residues 14–353 (crystallised rSLFN13_(14–353)) (from UniProt Q5U311 14-353) (domain or fragment)” registered a stoichiometry N of 2.
